Reference: doi:10.64898/2025.12.30.697096 (bioRxiv, 2025)
No end group written: not given here. *: point of attachment. MTSL = nitroxide spin label, CC1(C)C=C(CS*)C(C)(C)N1[O]

B1: Glu3-tagged Bax α9 peptide (Bax residues Gly166 to Gly192) (peptide, UniProt Q07812 166-192, looked up)
chain: GTPTWQTVTIFVAGVLTASLTIWKKMG

How the values were obtained:
[1] = target: the molecule itself; test: cross-linking
[2] = target: B1; test: NMR paramagnetic relaxation enhancement

Row | Binder | stoichiometry N [1] | binding result [2]
1 | B1 | 2 | 
2 | GTPTWQTVTIFVAGVLTASLTIC(MTSL)KKMG (peptide, UniProt Q07812 166-192, looked up) [Bax (α9) W188C with MTSL spin probe] |  | binds
3 | GTPTWQTVTIFVAC(MTSL)VLTASLTIWKKMG (peptide, UniProt Q07812 166-192, looked up) [Bax (α9) G179C with MTSL spin probe] |  | binds
4 | GTPTWQC(MTSL)VTIFVAGVLTASLTIWKKMG (peptide, UniProt Q07812 166-192, looked up) [Bax (α9) T172C with MTSL spin probe] |  | binds
